In the DeepSol protein solubility set:

test: soluble on expression in E. coli; label from the status in PepcDB or PDB records

| Sequence | soluble on expression in E. coli |
| --- | --- |
| PLKEQKVINTANITTNSKLDLAEYENGLMNIAKEQFDTENHVLQLNQYIPEKLVDELVAKVKAPVLTNIIEQDYFGKQNSNELSLSGVVIGLAMSSSVSNEEALSKGTEVAGQLIEAIHKNGKYNKSPITFAIFKQESTSSLKNGTYIASATVQKNDTNLGNWNAIEEKAYSYPSDEFTQAHGEDNEKINKFAEAMKGFSPGDFIPVNAKVSYKKNQMDTLNMDIVIKYNGKTELMALTQLAAQSMLDQLPKDAKVQLQIKSENKIEAIVIKEKNSDKPFVSFL | soluble |
| PLQFHSVHGDNIRISRDGTLARRFESFCRAITFSARPVRINERICVKFAEISNNWNGGIRFGFTSNDPVTLEGTLPKYACPDLTNRPGFWAKALHEQYCEKDNILYYYVNGAGDVIYGINNEEKGVILTGIDTRSLLWTVIDIYGNCTGIEFLDSRIYMYQ | soluble |
| PMDDIVRIHASSGTTGKPTVVGYTRKDIEIWSELMARSFAAAGVHKGDIIHNAYGYGLFTGGLGAHYGAERLGASVIPMSGGNTKKQIMIMKDFGSTVLTCTPSYSLFMAEAAREEGVDFRQLKLHVGIFGAEPWSESMRAEIEQKLNLCAIDIYGLSEIMGPGVAIECREAKKGLHI | not soluble |
| PPHVKFIKEKDICSYEEASDPGHFRWYPKGKLMRDLLADYVYNLVVNMGAMPVETPIMYDLGNPAIREHADKFGERQYRFRQGNKELMLRFAACFGQFMMKKDMYLLPRYLPLKLYELSTYSFRYEQRGELVGLKRLRCFTMPDMHTVCLNLEQAMEEFEKQFWECLKTGDDLNLSYSVIFRFTKDFFDEHRDWFFKIAKEYKNKYGKDVILEILPKRKHYWVGKVDIAVIDSLGRPIENPTVQIDVESAKRFDIKVHTNEGEIYPIILHCSPTGSIERVLCGLLEKAA | not soluble |
| PQKICLICGDEASGCHYGVLTCGSCKVFFKRAMEGQHNYLCAGRNDCIVDKIRRKNCPACRLRKCCQAGMVLGGRKFK | soluble |
| PQKIFTPSAEIVKYTKIIAMEKLYAVFTDYEHDKVSRDEAVNKIRLDTEEHLKEKFPEVDQFEIIESFNIVAKEVFRSIILNEYKRCDGRD | soluble |
| PRKASRKPPREESSATCVLEQPGALGAQILLVQRPNSGLLAGLWEFPSVTWEPSEQLQRKALLQELQRWAGPLPATHLRHLGEVVHTFSHIKLTYQVYGLALEGQTPVTTVPPGARWLTQEEFHTAAVSTAMKKVFRVYQGQ | soluble |
| PRLWEGQDVLARWTDGLLYLGTIKKVDSAREVCLVQFEDDSQFLVLWKDISPAAL | soluble |
| PSIKSGTILHAWNWSFNTLKNNMKDIHDAGYTAIQTSPINQVKEGNKGDKSMGNWYWLYQPTSYQIGNRYLGSEEEFKEMCAAAEEYGVKVIVDAVINHTTSDYAAISNEIKSISNWTHGNTQIKNWSDRWDVTQNSLLGLYDWNTQNTQVQSYLKRFLERALNDGADGFRYDAAKHIELPDDGNYGSQFWPNITNTSAEFQYGEILQDSASRDAAYANYMNVTASNYGHSIRSALKNRNLSVSNISHYASDVSADKLVTWVESHDTYANDDEESTWMSDDDIRLGWAVIASRSGSTPLFFSRPDGGGNGVRFPGKTQIGDRGSALFEDQAIVAVNTFHNVMAGQPEELSNPNGNNQIFMNQRGSKGVVLANAGSSSVSINASTKLPDGSYDNKAGTGSFQVRDGKLTGTINARSVAVLYPD | soluble |
| PSTVSHFMAFNPKNDVLNQRTIREAISKSIDAKDIAGKSVNGLFQKNVQFVTKNNQQPHDYDMKAAERLLKSEGYHKNDDGIFEKNGKPLSFNLVIQTAEFPNWKDKAEKVQRQLKQAGIKLNVKTLDSQSYYDTLWTKKDYDLIFYRTYSDALMPYNFISSVFKNNDGQPGVLADDETLTKQLDDFPSTVSKEDQQCSFDDIFKHFNQQYYGVPIAYPNETFVVSDKV | soluble |
| PTAGADTIEYCVTHSESKALIGGKLDDPAATQQVIDAMPELISIALPYDSAPQCQYQFNALIADAVPSEERPQHYDDKLMSLVYTSGTSGLPKGAMLTYGAFSWSVQQLINHIGIQANDRLFSYLPLAHITER | not soluble |
| PTVLAVTDEELTIRFVSPAIERVLGYDMESLVGTNWLDLVHPADTDRVLATLTGEREDDGTEYRFRNADGDWVWLETIVSSDTE | not soluble |
| PWTQNKRNLKHLNQLKEDILNNFEDLKLKDEKIIVMLSGGKDSAVSLAVAKELGLNVHLCVHFVHKWSWDISTNEAKKLADRFNIPIIFPNVTEELAKKTQGAKGKSICRICKTIMKARMIDIAKEENAKIIMTGETALEKIAGPVFQYIRENNTNVKRKDEFELYKKMEITKVPKRYKIHFFRPLIRVGHFDVFNLQKYYNIDIKRVSE | not soluble |
| QAMTKTLRTPEHVYLCQRLRQARLDAGLTQADLAERLDKPQSFVAKVETRERRLDVIEFAKWMAACEGLDVVSEIVATIAEGRAQA | soluble |
| QDVIVRTAVAEDVAPIIKMRKHIKEFGSRDENEELIIRQIEKGVKRIYYIEQDQEVVAVAETSAENSFSAMITGVATSDGYRQRGFASTLLKKLCCDVLAEGKKPCLFYDNPVAGEIYHRLGFEHTGDFVMYK | not soluble |
| QGHMRVEVFPVEGLPLIKEGDDLAELISSRVRFEDGDVLVVCSTVISKAEGRIRRLEEFNPSERAKEIAARIGKPAEFVQAVLEESEEVLLDFPFLLVKAKFGNVCVNAGIDASNVEEGSLLLPPLDPDGSAEKLRRRILELTGKRVGVIITDTNGRCFRRGVVGFAIGISGVKAMKDWIGRKDLYGRELEVTVECVADEIAAFANLLMGEGGDGIPAVVVRGLNVAGEGSMEEIYRSEEEDVIRRCLKRCLGS | soluble |

| Sequence | soluble on expression in E. coli |
| --- | --- |
| QIAPLFWLENTIEKVEGMRPYTPLEMAGREVYIREGCYVCHSQMIRPMRDEVERYGHYSLAAESMYDHPFQWGSKRTGPDLARVGGRYSDDWHVDHMRDPQSVVPESVMPKYGYLERTMIDGKYIGDLMAANAIVGVPYTDEMIEAAQADFAAQADPDSDYDGLLERYGDKVNVRNFDGQPGVSEADALIAYLQMLGT | not soluble |
| QIDYRDVFIEFLTTFKGNNNQNKYIERINELVAYRKKSLIIEFSDVLSFNENLAYEIINNTKIILPILEGALYDHILQLDPTYQRDIEKVHVRIVGIPRVIELRKIRSTDIGKLITIDGILVKVTPVKERIYKATYKHIHPDCMQEFEWPEDEEMPEVLEMPTICPKCGKPGQFRLIPEKTKLIDWQKAVIQERPEEVPSGQLPRQLEIILEDDLVDSARPGDRVKVTGILDIKQDSPVKRGSRAVFDIYMKVSSIEVSQKVLDEVIISEEDEKKIKDLAKDPWIRDRIISSIAPSIYGHWELKEALALALFGGVPKVLEDTRIRGDIHILIIGDPGTAKSQMLQFISRVAPRAVYTTGKGSTAAGLTAAVVREKGTGEYYLEAGALVLADGGIAVIDEIDKMRDEDRVAIHEAMEQQTVSIAKAGIVAKLNARAAVIAAGNPKFGRYISERPVSDNINLPPTILSRFDLIFILKDQPGEQDRELANYILDVHSGKSTKNIIDIDTLRKYIAYARKYVTPKITSEAKNLITDFFVEMRKKSSETPDSPILITPRQLEALIRISEAYAKMALKAEVTREDAERAINIMRLFLESVG | soluble |
| QKEQHSQLNQTKIAYEQRLLNDLEDMDDPLDLFLDYMIWISTSYIEVDSESGQEVLRSTMERCLIYIQDMETYRNDPRFLKIWIWYINLFLSNNFHESENTFKYMFNKGIGTKLSLFYEEFSKLLENAQFFLEAKVLLELGAENNCRPYNRLLRSLSNYEDRLREMNIVENQNSVPDSRERLKGRLIYRTAPFFIRKFLTSS | soluble |
| QKKDTSNHFHVFVGDLSPEITTEDIKAAFAPFGRISDARVVKDMATGKSKGYGFVSFFNKWDAENAIQQMGGQWLGGRQIRTNWATRKPPAPKSTYESNTKQ | soluble |
| QLEKELEESAARYNQLAAQSRTITWEIDVTGLFTYVSPVVESVFGYLPNELVGAMRFYEIHPTEGRERFKTSFLEMFASKTIVEEVVHPVVAVDGRTIWMSTNALPILDEHGTLVGYRGACTDIS | not soluble |
| QLTPTFYRETCPNLFPIVFGVIFDASFTDPRIGASLMRLHFHDCFVQGCDGSVLLNNTDTIESEQDALPNINSIRGLDVVNDIKTAVENSCPDTVSCADILAIAAEIASVLGGGPGWPVPLGRRDSLTANRTLANQNLPAPFFNLTQLKASFAVQGLNTLDLVTLSGGHTFGRARCSTFINRLYNFSNTGNPDPTLNTTYLEVLRARCPQNATGDNLTNLDLSTPDQFDNRYYSNLLQLNGLLQSDQELFSTPGADTIPIVNSFSSNQNTFFSNFRVSMIKMGNIGVLTGDEGEIRLQCNFVNG | soluble |
| QMSLEGTEKASWLGEQPQFWSKTQVLDWISYQVEKNKYDASAIDFSRCDMDGATLCNCALEELRLVFGPLGDQLHAQLRDLTSSS | soluble |
| QNFAIPTSSLEKTLLIGDYLFVSKLSYGPRSPMTPLGVPLTHNTMPLTGGKSFSDKPLLPYKRLKGFGHVKEGDLVVFNFPAGDTVAVKQPNPDYYMWKKLVGREELWSNPDFYGEIVYRPVDRRDHYVKRCVGMPGQELSIRNNQIYIDGKEQRNPRNMQLNYLVRMSREMSVDLIDELGISYDDVRAASSEELKASVGSNLIDSASNQPQIIYHLPLTQGMLDKLQAEPSFVKAVEEPTPIGPLYPLEYETGWTRDNYGPIVIPAKGMTVRLTPLNLALYSRCIRNFEGNKLVQKADGTVLINGRPADSYTFKMDY | not soluble |
| QPPAPRMIADGYQLLSELGALDERKGLTQIGHQLARFPTDPRIARMIMAAKQENCLSEVLIIAAALSLQDPRDRPFEHQQAADQAHQPFRDDR | not soluble |
| QRRLEVKGVVNNITVYDDFAHHPTAITATIDALRAKVGQQRILAVLEPRSNTMKMGVHKHELATSLQDADSVFIYQPPTIEWQVSEVLANLAQPAISADDVDELVMRIVQQAKPNDHILIMSNGAFGGIHQKLLTALANAFLMPS | not soluble |
| QSLVKDFLSGVFMLIEDQYGVGDTIDVGDVVGTVEDVSLRLTTLRDINGTQWFVRNGEILRVGNFSQEYAVAIINVPIALDEKASDAIALIEKSVADEAQLQEVADVLLDDPVVDGVNSVGLDHMVIRTRVTTLPDQQWFIERKMRARILTDLQRNGIDTPYPEGIGAYRRLDDEE | not soluble |
| QTEVQKLTNAKAIITYLAEKFPLCFVLEGEAKPLKIGLFQDLAEALQDDERVSKTQLRQALRQYTSNWRYLYGCREGAVRVDLQGNPAGVLDAEHVAHAAQQLAEAKARFAEKRKQKLQLKKHNKKSIRVNLRIKTLKKRV | not soluble |
| QTGGSFFEPFNSYNSGTWEKADGYSNGGVFNCTWRANNVNFTNDGKLKLGLTSSAYNKFDCAEYRSTNIYGYGLYEVSMKPAKNTGIVSSFFTYTGPAHGTQWDEIDIEFLGKDTTKVQFNYYTNGVGGHEKVISLGFDASKGFHTYAFDWQPGYIKWYVDGVLKHTATANIPSTPGKIMMNLWNGTGVDDWLGSYNGANPLYAEYDWVKYTSN | soluble |
| QTGGSFYEPFNNYNTGLWQKADGYSNGNMFNCTWRANNVSMTSLGEMRLSLTSPSYNKFDCGENRSVQTYGYGLYEVNMKPAKNVGIVSSFFTYTGPTDGTPWDEIDIEFLGKDTTKVQFNYYTNGVGNHEKIVNLGFDAANSYHTYAFDWQPNSIKWYVDGQLKHTATTQIPQTPGKIMMNLWNGAGVDEWLGSYNGVTPLYAHYNWVRYTKR | soluble |
| QTPPRLVAIGGLSGSGKTTIAEALAAHVGAPPGARIVESDRIRKAMHGVPAETRLPDNAYRPDVSDRVYNEMTWRAGLILSEGGSVVADAVFDRPADRERIEKAARDRGIPFFGFWLEADPLVLWQRVSERKGGPSDATVDILSRQLQRKAG | not soluble |
